Numbered stars: 1 amine (or outer) side, 2 acyl side, 3 side chain; on linkers, the order of the positions; unused ones are H or OH. Bridge positions count the residues as written; N and C are the ends. Side chains are listed from the residue outwards. Ends that are not written are not given here. * marks the point of attachment. C20 diacid = O=C(O)CCCCCCCCCCCCCCCCCCC(=O)*; γGlu = O=C(O)[C@H](CCC(=O)[*:2])N[*:1]
T1: human amylin receptor (human, UniProt P30988 25-474; O60896 24-148, limits assumed)
T1 construct: whole, on cells; Used as cell membranes prepared from the Amylin 3(a)/CRE-luc BHK cells (Assay V); also called hAmylin-R; hAmylinR
T1 sequence (looked up) 1: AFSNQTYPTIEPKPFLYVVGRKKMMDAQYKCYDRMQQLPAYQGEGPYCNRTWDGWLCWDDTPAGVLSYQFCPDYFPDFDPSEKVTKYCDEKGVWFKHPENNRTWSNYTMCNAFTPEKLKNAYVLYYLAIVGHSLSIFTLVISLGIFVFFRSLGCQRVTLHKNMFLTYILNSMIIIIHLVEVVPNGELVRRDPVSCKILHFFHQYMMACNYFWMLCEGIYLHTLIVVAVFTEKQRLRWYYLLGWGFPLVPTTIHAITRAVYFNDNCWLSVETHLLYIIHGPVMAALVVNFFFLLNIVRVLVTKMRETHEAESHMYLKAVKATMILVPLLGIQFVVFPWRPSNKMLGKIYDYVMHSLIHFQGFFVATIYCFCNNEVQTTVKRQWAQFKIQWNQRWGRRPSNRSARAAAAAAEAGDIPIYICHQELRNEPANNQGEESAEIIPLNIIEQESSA
T1 sequence (looked up) 2: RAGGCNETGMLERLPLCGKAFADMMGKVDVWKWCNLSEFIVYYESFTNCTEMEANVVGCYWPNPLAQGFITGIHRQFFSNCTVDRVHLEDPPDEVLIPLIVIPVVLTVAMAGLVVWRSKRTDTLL

B1: N^ε1-[(4S)-4-carboxy-4-[[(4S)-4-carboxy-4-(19-carboxynonadecanoylamino)butanoyl]amino]butanoyl]-[Asp14,Arg17,Pro21,Pro27,Asp35]-h-amylin (peptide)
peptide: K([γGlu-γGlu-C20 diacid])CNTATCATQRLADFLRHSSPNFGAIPSSTNVGSDTY-NH2
modifications: disulfide 2-7; N-terminus assumed
SMILES: CC[C@H](C)[C@H](NC(=O)[C@H](C)NC(=O)CNC(=O)[C@H](Cc1ccccc1)NC(=O)[C@H](CC(N)=O)NC(=O)[C@@H]1CCCN1C(=O)[C@H](CO)NC(=O)[C@H](CO)NC(=O)[C@H](Cc1c[nH]cn1)NC(=O)[C@H](CCCNC(=N)N)NC(=O)[C@H](CC(C)C)NC(=O)[C@H](Cc1ccccc1)NC(=O)[C@H](CC(=O)O)NC(=O)[C@H](C)NC(=O)[C@H](CC(C)C)NC(=O)[C@H](CCCNC(=N)N)NC(=O)[C@H](CCC(N)=O)NC(=O)[C@@H](NC(=O)[C@H](C)NC(=O)[C@@H]1CSSC[C@H](NC(=O)[C@@H](N)CCCCNC(=O)CC[C@H](NC(=O)CC[C@H](NC(=O)CCCCCCCCCCCCCCCCCCC(=O)O)C(=O)O)C(=O)O)C(=O)N[C@@H](CC(N)=O)C(=O)N[C@@H]([C@@H](C)O)C(=O)N[C@@H](C)C(=O)N[C@@H]([C@@H](C)O)C(=O)N1)[C@@H](C)O)C(=O)N1CCC[C@H]1C(=O)N[C@@H](CO)C(=O)N[C@@H](CO)C(=O)N[C@H](C(=O)N[C@@H](CC(N)=O)C(=O)N[C@H](C(=O)NCC(=O)N[C@@H](CO)C(=O)N[C@@H](CC(=O)O)C(=O)N[C@H](C(=O)N[C@@H](Cc1ccc(O)cc1)C(N)=O)[C@@H](C)O)C(C)C)[C@@H](C)O
notes: also called compound 2
B2: N^ε1-[(4S)-4-carboxy-4-[[(4S)-4-carboxy-4-(19-carboxynonadecanoylamino)butanoyl]amino]butanoyl]-[Glu14,Arg17,Pro21,Pro27,His34,Glu35]-h-amylin (peptide)
peptide: K([γGlu-γGlu-C20 diacid])CNTATCATQRLAEFLRHSSPNFGAIPSSTNVGHETY-NH2
modifications: disulfide 2-7; N-terminus assumed
SMILES: CC[C@H](C)[C@H](NC(=O)[C@H](C)NC(=O)CNC(=O)[C@H](Cc1ccccc1)NC(=O)[C@H](CC(N)=O)NC(=O)[C@@H]1CCCN1C(=O)[C@H](CO)NC(=O)[C@H](CO)NC(=O)[C@H](Cc1c[nH]cn1)NC(=O)[C@H](CCCNC(=N)N)NC(=O)[C@H](CC(C)C)NC(=O)[C@H](Cc1ccccc1)NC(=O)[C@H](CCC(=O)O)NC(=O)[C@H](C)NC(=O)[C@H](CC(C)C)NC(=O)[C@H](CCCNC(=N)N)NC(=O)[C@H](CCC(N)=O)NC(=O)[C@@H](NC(=O)[C@H](C)NC(=O)[C@@H]1CSSC[C@H](NC(=O)[C@@H](N)CCCCNC(=O)CC[C@H](NC(=O)CC[C@H](NC(=O)CCCCCCCCCCCCCCCCCCC(=O)O)C(=O)O)C(=O)O)C(=O)N[C@@H](CC(N)=O)C(=O)N[C@@H]([C@@H](C)O)C(=O)N[C@@H](C)C(=O)N[C@@H]([C@@H](C)O)C(=O)N1)[C@@H](C)O)C(=O)N1CCC[C@H]1C(=O)N[C@@H](CO)C(=O)N[C@@H](CO)C(=O)N[C@H](C(=O)N[C@@H](CC(N)=O)C(=O)N[C@H](C(=O)NCC(=O)N[C@@H](Cc1c[nH]cn1)C(=O)N[C@@H](CCC(=O)O)C(=O)N[C@H](C(=O)N[C@@H](Cc1ccc(O)cc1)C(N)=O)[C@@H](C)O)C(C)C)[C@@H](C)O
B3: N{Alpha-1}-[(4S)-4-carboxy-4-(19-carboxynonadecanoylamino)butanoyl]-[Glu14,Arg17,Pro21,Pro27,Lys34]-h-amylin (peptide)
peptide: {C20 diacid-γGlu}-KCNTATCATQRLAEFLRHSSPNFGAIPSSTNVGKNTY-NH2
modifications: disulfide 2-7
SMILES: CC[C@H](C)[C@H](NC(=O)[C@H](C)NC(=O)CNC(=O)[C@H](Cc1ccccc1)NC(=O)[C@H](CC(N)=O)NC(=O)[C@@H]1CCCN1C(=O)[C@H](CO)NC(=O)[C@H](CO)NC(=O)[C@H](Cc1c[nH]cn1)NC(=O)[C@H](CCCNC(=N)N)NC(=O)[C@H](CC(C)C)NC(=O)[C@H](Cc1ccccc1)NC(=O)[C@H](CCC(=O)O)NC(=O)[C@H](C)NC(=O)[C@H](CC(C)C)NC(=O)[C@H](CCCNC(=N)N)NC(=O)[C@H](CCC(N)=O)NC(=O)[C@@H](NC(=O)[C@H](C)NC(=O)[C@@H]1CSSC[C@H](NC(=O)[C@H](CCCCN)NC(=O)CC[C@H](NC(=O)CCCCCCCCCCCCCCCCCCC(=O)O)C(=O)O)C(=O)N[C@@H](CC(N)=O)C(=O)N[C@@H]([C@@H](C)O)C(=O)N[C@@H](C)C(=O)N[C@@H]([C@@H](C)O)C(=O)N1)[C@@H](C)O)C(=O)N1CCC[C@H]1C(=O)N[C@@H](CO)C(=O)N[C@@H](CO)C(=O)N[C@H](C(=O)N[C@@H](CC(N)=O)C(=O)N[C@H](C(=O)NCC(=O)N[C@@H](CCCCN)C(=O)N[C@@H](CC(N)=O)C(=O)N[C@H](C(=O)N[C@@H](Cc1ccc(O)cc1)C(N)=O)[C@@H](C)O)C(C)C)[C@@H](C)O
notes: also called compound 36
B4: N^ε1-[(4S)-4-carboxy-4-[[(4S)-4-carboxy-4-(19-carboxynonadecanoylamino)butanoyl]amino]butanoyl]-[Glu14,Arg17,Pro21,Pro27,Pro34,Glu35]-h-amylin (peptide)
peptide: K([γGlu-γGlu-C20 diacid])CNTATCATQRLAEFLRHSSPNFGAIPSSTNVGPETY-NH2
modifications: disulfide 2-7; N-terminus assumed
SMILES: CC[C@H](C)[C@H](NC(=O)[C@H](C)NC(=O)CNC(=O)[C@H](Cc1ccccc1)NC(=O)[C@H](CC(N)=O)NC(=O)[C@@H]1CCCN1C(=O)[C@H](CO)NC(=O)[C@H](CO)NC(=O)[C@H](Cc1c[nH]cn1)NC(=O)[C@H](CCCNC(=N)N)NC(=O)[C@H](CC(C)C)NC(=O)[C@H](Cc1ccccc1)NC(=O)[C@H](CCC(=O)O)NC(=O)[C@H](C)NC(=O)[C@H](CC(C)C)NC(=O)[C@H](CCCNC(=N)N)NC(=O)[C@H](CCC(N)=O)NC(=O)[C@@H](NC(=O)[C@H](C)NC(=O)[C@@H]1CSSC[C@H](NC(=O)[C@@H](N)CCCCNC(=O)CC[C@H](NC(=O)CC[C@H](NC(=O)CCCCCCCCCCCCCCCCCCC(=O)O)C(=O)O)C(=O)O)C(=O)N[C@@H](CC(N)=O)C(=O)N[C@@H]([C@@H](C)O)C(=O)N[C@@H](C)C(=O)N[C@@H]([C@@H](C)O)C(=O)N1)[C@@H](C)O)C(=O)N1CCC[C@H]1C(=O)N[C@@H](CO)C(=O)N[C@@H](CO)C(=O)N[C@H](C(=O)N[C@@H](CC(N)=O)C(=O)N[C@H](C(=O)NCC(=O)N1CCC[C@H]1C(=O)N[C@@H](CCC(=O)O)C(=O)N[C@H](C(=O)N[C@@H](Cc1ccc(O)cc1)C(N)=O)[C@@H](C)O)C(C)C)[C@@H](C)O
B5: N^ε1-[(4S)-4-carboxy-4-[[(4S)-4-carboxy-4-(19-carboxynonadecanoylamino)butanoyl]amino]butanoyl]-[Glu14,Arg17,Pro21,Pro27,Arg34,Glu35]-h-amylin (peptide)
peptide: K([γGlu-γGlu-C20 diacid])CNTATCATQRLAEFLRHSSPNFGAIPSSTNVGRETY-NH2
modifications: disulfide 2-7; N-terminus assumed
SMILES: CC[C@H](C)[C@H](NC(=O)[C@H](C)NC(=O)CNC(=O)[C@H](Cc1ccccc1)NC(=O)[C@H](CC(N)=O)NC(=O)[C@@H]1CCCN1C(=O)[C@H](CO)NC(=O)[C@H](CO)NC(=O)[C@H](Cc1c[nH]cn1)NC(=O)[C@H](CCCNC(=N)N)NC(=O)[C@H](CC(C)C)NC(=O)[C@H](Cc1ccccc1)NC(=O)[C@H](CCC(=O)O)NC(=O)[C@H](C)NC(=O)[C@H](CC(C)C)NC(=O)[C@H](CCCNC(=N)N)NC(=O)[C@H](CCC(N)=O)NC(=O)[C@@H](NC(=O)[C@H](C)NC(=O)[C@@H]1CSSC[C@H](NC(=O)[C@@H](N)CCCCNC(=O)CC[C@H](NC(=O)CC[C@H](NC(=O)CCCCCCCCCCCCCCCCCCC(=O)O)C(=O)O)C(=O)O)C(=O)N[C@@H](CC(N)=O)C(=O)N[C@@H]([C@@H](C)O)C(=O)N[C@@H](C)C(=O)N[C@@H]([C@@H](C)O)C(=O)N1)[C@@H](C)O)C(=O)N1CCC[C@H]1C(=O)N[C@@H](CO)C(=O)N[C@@H](CO)C(=O)N[C@H](C(=O)N[C@@H](CC(N)=O)C(=O)N[C@H](C(=O)NCC(=O)N[C@@H](CCCNC(=N)N)C(=O)N[C@@H](CCC(=O)O)C(=O)N[C@H](C(=O)N[C@@H](Cc1ccc(O)cc1)C(N)=O)[C@@H](C)O)C(C)C)[C@@H](C)O

Each binder was assayed against T1, human amylin receptor (assay: SPA competition vs 125I-rat amylin, membranes of amylin 3(a) receptor BHK cells (Assay V)).
Method: The binding assay was performed using scintillation proximity assay (SPA) beads (RPNQ0001) from PerkinElmer and cell membranes from the Amylin 3(a)/CRE-luc cells (as described in Assay (II)) were used. Membranes were prepared in the following way; the cells were rinsed with PBS and incubated with Versene for approximately 5 min before harvesting. The cells were flushed with PBS and the cell-suspension was centrifuged for 5 min at 1000 rpm. Cells were homogenized (ultrathurrax) in a buffer containing 20 mM Na-HEPES and 10 mM EDTA (pH 7.4) and centrifuged at 20.000 rpm for 15 min. The resulting pellet was resuspended, homogenized and centrifuged (20.000 rpm, 15 min) in a buffer containing 20 mM Na-HEPES and 0.1 mM EDTA (pH 7.4, buffer 2). The resulting pellet was resuspended in buffer 2 and protein concentration was measured (BCA protein Assay, Pierce). The homogenate was kept cold during the whole procedure. The membranes were kept at −80° C. until use. The assay was performed in a 384 well Optiplate (PerkinElmer) in a total volume of 40 ul. Membranes were mixed with SPA beads. Final concentration of membranes 35 ng/μL final and SPA beads was 0.05 mg/well. Test-compounds were dissolved in DMSO and further diluted in assay buffer (50 mM Hepes, pH 7.4, 1 mM CaCl2, 5 mM MgCl₂, 0.1% OA and 0.02% Tween20). […] The final mixture was incubated with shaking at 400 rpm for 120 min at 25° C. prior to centrifugation (1500 rpm, 10 min). Samples were analyzed on TopCounter™ (Packard). The IC₅₀ was calculated using (one site binding competition analysis) GraphPad Prism5 as a measure of receptor affinity.

Point of comparison: B1, IC50 0.411 nM. Against it:
- B2 — within 1.5-fold, 0.525 nM
- B3 — within 1.5-fold, 0.403 nM
- B4 — 3.4-fold lower, 0.121 nM
- B5 — 2.3-fold higher, 0.957 nM
